Measured values published in patent US20180327462A1.

Biological target: SH2-GFP-tail substrate with the SH2 domain of human Abl1 (human; yeast) (UniProt P00519)
Assay: cell-based or functional assay

Sequence of UniProt P00519 (P00519 other isoform, or with tags, fused parts or gaps, form in doubt): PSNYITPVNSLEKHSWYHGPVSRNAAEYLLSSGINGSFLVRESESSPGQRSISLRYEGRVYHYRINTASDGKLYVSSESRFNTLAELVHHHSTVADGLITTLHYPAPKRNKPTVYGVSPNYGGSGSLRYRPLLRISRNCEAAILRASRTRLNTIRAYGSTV

Row | substrate amount in cell lysate (SDS-PAGE, Typhoon fluorescence, ImageJ) | substrate turnovers per degradon molecule (10 nM degradon, varied substrate, GFP fluorescence) | Substance
1 | 4 fold | – | FLAG-hUbL-mB^HA4 (binding degradon; human Rad23b UbL domain fused N-terminally to the HA4 monobody) (from UniProt P54727 1-83) (designed binder)
2 | – | 5 times | UbL-mB^HA4 degradon (yeast Rad23 UbL domain fused N-terminally to the HA4 monobody) (from UniProt P32628 1-77) (designed binder)
